# Reference: the supplement of paper PMC10724198
# ± gives the standard deviation of the averaged measurements.
# Assays:
# Saccharomyces cerevisiae [1] = experiment: protein stability index of tFT-peptide fusion (C-terminal peptide) (PSI (0-1 scale)); higher = more stable (slower turnover)
# Description: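 MPS profiling in S. cerevisiae of the tFT-X12 degron library: putative degron peptides plus stable controls, 12 aa, fused to the C-terminus of a sfGFP-mCherry timer. Cells are FACS-sorted into 8 mCherry/sfGFP bins and deep-sequenced. PSI runs from 0 (unstable) to 1 (stable). Backgrounds are wild type, das1Δ and doa10Δ at 30 °C, and wild type, das1Δ, cdc34-1 and cdc53-1 at 37 °C; 2-3 technical replicates each.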
# Saccharomyces cerevisiae [2] = experiment: as above; conditions: genetic background: wild type; temperature: 30 C
# [3] = genetic background: cdc34-1, temperature: 37 C
# [4] = genetic background: cdc53-1, temperature: 37 C
# [5] = genetic background: das1 deletion, temperature: 30 C
# [6] = genetic background: das1 deletion, temperature: 37 C
# [7] = genetic background: doa10 deletion, temperature: 30 C
# [8] = genetic background: wild type, temperature: 30 C
# [9] = genetic background: wild type, temperature: 37 C
# 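Also: PSI is a weighted mean of sequencing reads over stability bins, variants kept only with over 10 reads, mCherry proximal and sfGFP distal, peptide attached via GGGS linker.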
sequence,measurement,setting,value
WVWCVCVVVWCG,protein stability index,Saccharomyces cerevisiae [1]; [3],0.111 ± 0.0046
same,protein stability index,Saccharomyces cerevisiae [1]; [4],0.191 ± 0.051
same,protein stability index,Saccharomyces cerevisiae [1]; [5],0.153 ± 0.026
same,protein stability index,Saccharomyces cerevisiae [1]; [6],0.256 ± 0.013
same,protein stability index,Saccharomyces cerevisiae [1]; [7],0.135 ± 0.0037
same,protein stability index,Saccharomyces cerevisiae [1]; [8],0.14 ± 0.02
same,protein stability index,Saccharomyces cerevisiae [1]; [9],0.195 ± 0.026
same,protein stability index,Saccharomyces cerevisiae [2],0.25425 ± 0.00016
WVWFGCVLGYRV,protein stability index,Saccharomyces cerevisiae [1]; [3],0.571 ± 0.022
same,protein stability index,Saccharomyces cerevisiae [1]; [4],0.561 ± 0.025
same,protein stability index,Saccharomyces cerevisiae [1]; [5],0.426 ± 0.026
same,protein stability index,Saccharomyces cerevisiae [1]; [6],0.566 ± 0.021
same,protein stability index,Saccharomyces cerevisiae [1]; [7],0.442 ± 0.039
same,protein stability index,Saccharomyces cerevisiae [1]; [8],0.413 ± 0.027
same,protein stability index,Saccharomyces cerevisiae [1]; [9],0.531 ± 0.019
same,protein stability index,Saccharomyces cerevisiae [2],0.484 ± 0.022
WWVAGLGSSGGG,protein stability index,Saccharomyces cerevisiae [1]; [3],0.738 ± 0.016
same,protein stability index,Saccharomyces cerevisiae [1]; [4],0.77959 ± 0.00011
same,protein stability index,Saccharomyces cerevisiae [1]; [5],0.663 ± 0.026
same,protein stability index,Saccharomyces cerevisiae [1]; [6],0.788 ± 0.0094
same,protein stability index,Saccharomyces cerevisiae [1]; [7],0.686 ± 0.031
same,protein stability index,Saccharomyces cerevisiae [1]; [8],0.677 ± 0.0094
same,protein stability index,Saccharomyces cerevisiae [1]; [9],0.765 ± 0.026
same,protein stability index,Saccharomyces cerevisiae [2],0.7348 ± 0.0046
WWVVVRGGWCLC,protein stability index,Saccharomyces cerevisiae [1]; [3],0.336 ± 0.043
same,protein stability index,Saccharomyces cerevisiae [1]; [4],0.416 ± 0.014
same,protein stability index,Saccharomyces cerevisiae [1]; [5],0.286 ± 0.032
same,protein stability index,Saccharomyces cerevisiae [1]; [6],0.495 ± 0.009
same,protein stability index,Saccharomyces cerevisiae [1]; [7],0.1219 ± 0.0001
same,protein stability index,Saccharomyces cerevisiae [1]; [8],0.16 ± 0.0021
same,protein stability index,Saccharomyces cerevisiae [1]; [9],0.205 ± 0.0045
same,protein stability index,Saccharomyces cerevisiae [2],0.204 ± 0.011
YFVLVRLICFLL,protein stability index,Saccharomyces cerevisiae [1]; [3],0.347 ± 0.0092
same,protein stability index,Saccharomyces cerevisiae [1]; [4],0.438 ± 0.0066
same,protein stability index,Saccharomyces cerevisiae [1]; [5],0.289 ± 0.035
same,protein stability index,Saccharomyces cerevisiae [1]; [6],0.472 ± 0.01
same,protein stability index,Saccharomyces cerevisiae [1]; [7],0.194 ± 0.011
same,protein stability index,Saccharomyces cerevisiae [1]; [8],0.216 ± 0.039
same,protein stability index,Saccharomyces cerevisiae [1]; [9],0.373 ± 0.013
same,protein stability index,Saccharomyces cerevisiae [2],0.244 ± 0.085
YNTVALRITLIT,protein stability index,Saccharomyces cerevisiae [1]; [3],0.444 ± 0.017
same,protein stability index,Saccharomyces cerevisiae [1]; [4],0.538 ± 0.013
same,protein stability index,Saccharomyces cerevisiae [1]; [5],0.329 ± 0.05
same,protein stability index,Saccharomyces cerevisiae [1]; [6],0.5018 ± 0.0042
same,protein stability index,Saccharomyces cerevisiae [1]; [7],0.209 ± 0.00078
same,protein stability index,Saccharomyces cerevisiae [1]; [8],0.228 ± 0.017
same,protein stability index,Saccharomyces cerevisiae [1]; [9],0.364 ± 0.0086
same,protein stability index,Saccharomyces cerevisiae [2],0.348 ± 0.03
YPLISVSLPCPS,protein stability index,Saccharomyces cerevisiae [1]; [3],0.533 ± 0.018
same,protein stability index,Saccharomyces cerevisiae [1]; [4],0.6067 ± 0.0052
same,protein stability index,Saccharomyces cerevisiae [1]; [5],0.396 ± 0.042
same,protein stability index,Saccharomyces cerevisiae [1]; [6],0.585 ± 0.015
same,protein stability index,Saccharomyces cerevisiae [1]; [7],0.349 ± 0.005
same,protein stability index,Saccharomyces cerevisiae [1]; [8],0.404 ± 0.023
same,protein stability index,Saccharomyces cerevisiae [1]; [9],0.544 ± 0.016
same,protein stability index,Saccharomyces cerevisiae [2],0.489 ± 0.012
YPRLVGGCWFRL,protein stability index,Saccharomyces cerevisiae [1]; [3],0.318 ± 0.03
same,protein stability index,Saccharomyces cerevisiae [1]; [4],0.258 ± 0.037
same,protein stability index,Saccharomyces cerevisiae [1]; [5],0.371 ± 0.016
same,protein stability index,Saccharomyces cerevisiae [1]; [6],0.547 ± 0.032
same,protein stability index,Saccharomyces cerevisiae [1]; [7],0.644 ± 0.043
same,protein stability index,Saccharomyces cerevisiae [1]; [8],0.319 ± 0.041
same,protein stability index,Saccharomyces cerevisiae [1]; [9],0.603 ± 0.031
same,protein stability index,Saccharomyces cerevisiae [2],0.403 ± 0.047
YSCFFFLFSFFF,protein stability index,Saccharomyces cerevisiae [1]; [3],0.498 ± 0.023
same,protein stability index,Saccharomyces cerevisiae [1]; [4],0.56 ± 0.016
same,protein stability index,Saccharomyces cerevisiae [1]; [5],0.429 ± 0.027
same,protein stability index,Saccharomyces cerevisiae [1]; [6],0.5552 ± 0.0024
same,protein stability index,Saccharomyces cerevisiae [1]; [7],0.423 ± 0.022
same,protein stability index,Saccharomyces cerevisiae [1]; [8],0.406 ± 0.0031
same,protein stability index,Saccharomyces cerevisiae [1]; [9],0.50243 ± 1.8e-05
same,protein stability index,Saccharomyces cerevisiae [2],0.4853 ± 0.0041
YSVFCPLFFIIY,protein stability index,Saccharomyces cerevisiae [1]; [3],0.3507 ± 0.0014
same,protein stability index,Saccharomyces cerevisiae [1]; [4],0.323 ± 0.006
same,protein stability index,Saccharomyces cerevisiae [1]; [5],0.298 ± 0.04
same,protein stability index,Saccharomyces cerevisiae [1]; [6],0.458 ± 0.013
same,protein stability index,Saccharomyces cerevisiae [1]; [7],0.351 ± 0.014
same,protein stability index,Saccharomyces cerevisiae [1]; [8],0.283 ± 0.02
same,protein stability index,Saccharomyces cerevisiae [1]; [9],0.433 ± 0.0062
same,protein stability index,Saccharomyces cerevisiae [2],0.379 ± 0.014
YTPPISRLLIFT,protein stability index,Saccharomyces cerevisiae [1]; [3],0.528 ± 0.031
same,protein stability index,Saccharomyces cerevisiae [1]; [4],0.532 ± 0.0094
same,protein stability index,Saccharomyces cerevisiae [1]; [5],0.39 ± 0.035
same,protein stability index,Saccharomyces cerevisiae [1]; [6],0.564 ± 0.016
same,protein stability index,Saccharomyces cerevisiae [1]; [7],0.353 ± 0.019
same,protein stability index,Saccharomyces cerevisiae [1]; [8],0.364 ± 0.052
same,protein stability index,Saccharomyces cerevisiae [1]; [9],0.494 ± 0.022
same,protein stability index,Saccharomyces cerevisiae [2],0.497 ± 0.097
YVFSPWSCWASV,protein stability index,Saccharomyces cerevisiae [1]; [3],0.366 ± 0.019
same,protein stability index,Saccharomyces cerevisiae [1]; [4],0.396 ± 0.0044
same,protein stability index,Saccharomyces cerevisiae [1]; [5],0.416 ± 0.0081
same,protein stability index,Saccharomyces cerevisiae [1]; [6],0.361 ± 0.0059
same,protein stability index,Saccharomyces cerevisiae [1]; [7],0.4213 ± 0.00065
same,protein stability index,Saccharomyces cerevisiae [1]; [8],0.4048 ± 0.0027
same,protein stability index,Saccharomyces cerevisiae [1]; [9],0.351 ± 0.015
same,protein stability index,Saccharomyces cerevisiae [2],0.423 ± 0.015
YVLWFVCGVGFV,protein stability index,Saccharomyces cerevisiae [1]; [3],0.352 ± 0.015
same,protein stability index,Saccharomyces cerevisiae [1]; [4],0.462 ± 0.031
same,protein stability index,Saccharomyces cerevisiae [1]; [5],0.29 ± 0.045
same,protein stability index,Saccharomyces cerevisiae [1]; [6],0.4768 ± 0.0011
same,protein stability index,Saccharomyces cerevisiae [1]; [7],0.262 ± 0.024
same,protein stability index,Saccharomyces cerevisiae [1]; [8],0.298 ± 0.02
same,protein stability index,Saccharomyces cerevisiae [1]; [9],0.453 ± 0.028
same,protein stability index,Saccharomyces cerevisiae [2],0.392 ± 0.041
YVWPKRRGLRVA,protein stability index,Saccharomyces cerevisiae [1]; [3],0.611 ± 0.036
same,protein stability index,Saccharomyces cerevisiae [1]; [4],0.674 ± 0.023
same,protein stability index,Saccharomyces cerevisiae [1]; [5],0.467 ± 0.03
same,protein stability index,Saccharomyces cerevisiae [1]; [6],0.679 ± 0.009
same,protein stability index,Saccharomyces cerevisiae [1]; [7],0.197 ± 0.019
same,protein stability index,Saccharomyces cerevisiae [1]; [8],0.261 ± 0.038
same,protein stability index,Saccharomyces cerevisiae [1]; [9],0.49 ± 0.025
same,protein stability index,Saccharomyces cerevisiae [2],0.433 ± 0.013
YYLVKCVYLRTT,protein stability index,Saccharomyces cerevisiae [1]; [3],0.413 ± 0.013
same,protein stability index,Saccharomyces cerevisiae [1]; [4],0.4509 ± 0.0038
same,protein stability index,Saccharomyces cerevisiae [1]; [5],0.371 ± 0.029
same,protein stability index,Saccharomyces cerevisiae [1]; [6],0.504 ± 0.0098
same,protein stability index,Saccharomyces cerevisiae [1]; [7],0.155 ± 0.02
same,protein stability index,Saccharomyces cerevisiae [1]; [8],0.175 ± 0.0092
same,protein stability index,Saccharomyces cerevisiae [1]; [9],0.3201 ± 0.00022
same,protein stability index,Saccharomyces cerevisiae [2],0.254 ± 0.032
